One series has as its system T1, MGYPDa26 (unidentified).
T1 sequence: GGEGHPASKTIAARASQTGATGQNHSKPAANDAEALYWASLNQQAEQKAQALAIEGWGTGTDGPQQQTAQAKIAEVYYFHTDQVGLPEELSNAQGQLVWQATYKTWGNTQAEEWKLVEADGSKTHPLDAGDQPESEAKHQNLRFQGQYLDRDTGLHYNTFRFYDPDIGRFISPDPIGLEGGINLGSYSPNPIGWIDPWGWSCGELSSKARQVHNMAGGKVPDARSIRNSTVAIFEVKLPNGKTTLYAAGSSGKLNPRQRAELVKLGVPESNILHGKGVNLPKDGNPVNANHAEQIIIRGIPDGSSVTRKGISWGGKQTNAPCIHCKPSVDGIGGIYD

Series [1] relates to NsDa01 (Neisseria subflava). The note with it: 5mC 0.059, 5hmC 0.017.
The subject of series [2] is T2, AvDa02 (Actinomyces viscosus).
T2 sequence: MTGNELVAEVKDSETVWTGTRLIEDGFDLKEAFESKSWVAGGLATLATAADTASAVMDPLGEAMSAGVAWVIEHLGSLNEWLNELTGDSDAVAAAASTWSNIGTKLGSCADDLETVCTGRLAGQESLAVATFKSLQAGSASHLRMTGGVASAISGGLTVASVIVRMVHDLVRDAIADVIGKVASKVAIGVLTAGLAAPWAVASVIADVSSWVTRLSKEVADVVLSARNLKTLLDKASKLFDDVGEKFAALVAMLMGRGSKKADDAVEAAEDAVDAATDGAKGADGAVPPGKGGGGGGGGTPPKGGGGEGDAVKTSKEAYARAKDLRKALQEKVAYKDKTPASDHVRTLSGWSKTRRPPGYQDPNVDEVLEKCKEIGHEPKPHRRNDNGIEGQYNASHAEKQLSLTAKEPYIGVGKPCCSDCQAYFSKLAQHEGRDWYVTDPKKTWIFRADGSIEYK

The test system of a further series is AcDa01. As to conditions: CG 0.790, CH 0.014.
In a further series the target is DddA (UniProt P0DUH5).
In another series the test system is T3, Sso7d_VTAGVGEAG_MGYPDa20.
T3 sequence: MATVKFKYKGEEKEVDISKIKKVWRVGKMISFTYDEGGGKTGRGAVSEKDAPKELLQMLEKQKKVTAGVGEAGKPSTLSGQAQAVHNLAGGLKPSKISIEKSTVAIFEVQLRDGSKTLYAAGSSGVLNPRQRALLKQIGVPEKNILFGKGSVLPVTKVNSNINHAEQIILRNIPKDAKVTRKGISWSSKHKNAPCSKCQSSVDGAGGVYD

Another series has as its system T4, Sso7d_RhDa01_extN10.
T4 sequence: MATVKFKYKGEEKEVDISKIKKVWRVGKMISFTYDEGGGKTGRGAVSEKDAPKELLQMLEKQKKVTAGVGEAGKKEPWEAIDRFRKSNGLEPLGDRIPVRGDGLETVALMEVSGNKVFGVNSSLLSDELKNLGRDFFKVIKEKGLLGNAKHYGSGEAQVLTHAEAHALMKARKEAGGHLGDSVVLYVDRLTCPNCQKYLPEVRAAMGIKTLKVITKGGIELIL

The subject of another series is T5, LbDa02.
T5 sequence: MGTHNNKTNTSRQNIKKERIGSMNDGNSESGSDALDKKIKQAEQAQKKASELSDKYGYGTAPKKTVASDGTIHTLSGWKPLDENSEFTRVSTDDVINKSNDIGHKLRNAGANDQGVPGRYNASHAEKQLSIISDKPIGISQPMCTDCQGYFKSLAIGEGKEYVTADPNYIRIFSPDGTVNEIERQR
As to conditions: NGS assay; Table 1 prints SEQ 19 for this name.

The next series deals with T6, RhDa01_extN10.
T6 sequence: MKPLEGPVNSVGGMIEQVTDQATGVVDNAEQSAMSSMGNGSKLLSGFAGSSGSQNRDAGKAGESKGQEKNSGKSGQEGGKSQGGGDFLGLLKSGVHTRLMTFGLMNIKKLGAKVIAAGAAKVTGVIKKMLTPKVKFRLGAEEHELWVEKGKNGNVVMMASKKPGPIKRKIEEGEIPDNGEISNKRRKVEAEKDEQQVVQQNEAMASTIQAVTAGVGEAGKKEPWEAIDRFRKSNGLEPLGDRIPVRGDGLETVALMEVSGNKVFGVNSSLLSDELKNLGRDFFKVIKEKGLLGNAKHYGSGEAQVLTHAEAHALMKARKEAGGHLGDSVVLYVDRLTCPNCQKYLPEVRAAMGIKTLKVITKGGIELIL
As to conditions: CG 0.32, CH 0.00.

Series [3] relates to d22_PeDa01 (Pseudomonas entomophila).
For a further series, the system named is T7, RhDa01.
T7 sequence: T6 sequence
The note with it: CG 0.23, CH 0.00.

Series [4] relates to T8, Sso7d_LSGLSDDKLKEI_AcDa01.
T8 sequence: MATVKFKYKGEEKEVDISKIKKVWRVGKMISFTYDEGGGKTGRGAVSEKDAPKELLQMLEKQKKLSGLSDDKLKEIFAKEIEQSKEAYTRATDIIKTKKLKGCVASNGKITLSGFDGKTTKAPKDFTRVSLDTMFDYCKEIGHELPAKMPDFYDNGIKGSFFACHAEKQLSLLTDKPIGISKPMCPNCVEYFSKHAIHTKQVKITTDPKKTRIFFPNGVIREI
The note with it: CG 0.99, CH 0.17.

A further series deals with T9, Sso7d_GGGVTS_AcDa01.
T9 sequence: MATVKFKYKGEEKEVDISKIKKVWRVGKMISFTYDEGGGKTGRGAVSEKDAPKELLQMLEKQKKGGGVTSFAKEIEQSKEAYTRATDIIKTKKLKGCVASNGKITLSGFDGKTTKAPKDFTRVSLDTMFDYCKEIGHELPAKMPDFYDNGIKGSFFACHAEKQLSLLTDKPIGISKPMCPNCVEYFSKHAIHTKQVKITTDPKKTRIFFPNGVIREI
As to conditions: CG 0.79, CH 0.03.

The test system of another series is T10, HcDa01.
T10 sequence: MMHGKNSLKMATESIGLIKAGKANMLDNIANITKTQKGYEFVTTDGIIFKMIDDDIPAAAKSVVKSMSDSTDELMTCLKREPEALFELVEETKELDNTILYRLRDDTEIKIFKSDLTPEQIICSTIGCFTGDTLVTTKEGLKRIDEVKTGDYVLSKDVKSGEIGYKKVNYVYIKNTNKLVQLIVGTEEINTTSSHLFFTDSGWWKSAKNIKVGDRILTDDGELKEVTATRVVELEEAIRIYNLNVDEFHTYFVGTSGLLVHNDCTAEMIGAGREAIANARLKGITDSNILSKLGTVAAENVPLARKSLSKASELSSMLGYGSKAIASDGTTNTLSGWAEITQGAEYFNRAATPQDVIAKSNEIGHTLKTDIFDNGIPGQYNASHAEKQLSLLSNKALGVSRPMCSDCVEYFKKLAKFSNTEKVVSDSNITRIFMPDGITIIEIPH

As to “unmodified dsDNA (E. coli C2566 genomic)”, the activity (fraction deaminated) with MGYPDa26 (unidentified) was determined as 0.929; in series [1], 0.597; in series [2], 0.998; with AcDa01, 0.243; with DddA, 0.27; with Sso7d_VTAGVGEAG_MGYPDa20, 0.72. Moreover, the activity (fraction deaminated) in the series on Sso7d_RhDa01_extN10 stood at 0.93; with LbDa02 it was 1; with RhDa01_extN10, 0.1; in [3] it was 0.79; in the series with RhDa01 it was 0.07; in series [4] it was 0.41. Moreover, the activity (fraction deaminated) in the series with SsDa01 was found to be 0; in the series with Sso7d_GGGVTS_AcDa01, 0.26; in the series with HcDa01, 0.

The values above are taken from patent US20230357838.
